Results on 21 molecules are retold here after patent publication US20230340128A1.

Positions count from the first letter of the chain named.

B1: XENP31701 (bispecific antibody, part only; not given: anti-CD3 scFv-Fc arm, constant regions, V domains shown, not shown: another chain or arm of the molecule; a dimerising Fc or GST; small tags and cut ends)
VH: QVQLVQSGAEVKKPGASVKVSCKASGYTFTSYWMHWVRQAPGQGLEWMGMIHPNSDNTIYYEKFQGRVTMTVDKSISTAYMELSRLRSDDTAVYYCAIIITPVVPKFDYWGQGTLVTVSS
VL: DIVMTQSPDSLAVSLGERATINCKASHDVGTSVAWYQQKPGQSPKLLIYWASTRHTGVPDRFTGSGSGTDFTLTISSLQAEDVAVYFCQQYSSYPLTFGAGTKLEIK
B2: XENP32555 (bispecific antibody, part only; not given: anti-CD3 scFv-Fc arm, constant regions, V domains shown, not shown: another chain or arm of the molecule; a dimerising Fc or GST; small tags and cut ends)
VH: B1 VH with D56G
VL: B1 VL
B3: XENP32550 (bispecific antibody, part only; not given: anti-CD3 scFv-Fc arm, constant regions, V domains shown, not shown: another chain or arm of the molecule; a dimerising Fc or GST; small tags and cut ends)
VH: B1 VH with S31G
VL: B1 VL
B4: XENP32559 (bispecific antibody, part only; not given: anti-CD3 scFv-Fc arm, constant regions, V domains shown, not shown: another chain or arm of the molecule; a dimerising Fc or GST; small tags and cut ends)
VH: B1 VH
VL: B1 VL with A25S
B5: XENP32564 (bispecific antibody, part only; not given: anti-CD3 scFv-Fc arm, constant regions, V domains shown, not shown: another chain or arm of the molecule; a dimerising Fc or GST; small tags and cut ends)
VH: B1 VH
VL: B1 VL with V33L
B6: XENP32557 (bispecific antibody, part only; not given: anti-CD3 scFv-Fc arm, constant regions, V domains shown, not shown: another chain or arm of the molecule; a dimerising Fc or GST; small tags and cut ends)
VH: B1 VH with T101S
VL: B1 VL
B7: XENP32556 (bispecific antibody, part only; not given: anti-CD3 scFv-Fc arm, constant regions, V domains shown, not shown: another chain or arm of the molecule; a dimerising Fc or GST; small tags and cut ends)
VH: B1 VH with I98R
VL: B1 VL
B8: XENP32566 (bispecific antibody, part only; not given: anti-CD3 scFv-Fc arm, constant regions, V domains shown, not shown: another chain or arm of the molecule; a dimerising Fc or GST; small tags and cut ends)
VH: B1 VH
VL: B1 VL with T56S
B9: XENP32570 (bispecific antibody, part only; not given: anti-CD3 scFv-Fc arm, constant regions, V domains shown, not shown: another chain or arm of the molecule; a dimerising Fc or GST; small tags and cut ends)
VH: B1 VH with D56G
VL: B1 VL with D28S
B10: XENP32551 (bispecific antibody, part only; not given: anti-CD3 scFv-Fc arm, constant regions, V domains shown, not shown: another chain or arm of the molecule; a dimerising Fc or GST; small tags and cut ends)
VH: B1 VH with W33Y
VL: B1 VL
B11: XENP32554 (bispecific antibody, part only; not given: anti-CD3 scFv-Fc arm, constant regions, V domains shown, not shown: another chain or arm of the molecule; a dimerising Fc or GST)
VH: B1 VH with N54Q
VL: B1 VL
B12: XENP32558 (bispecific antibody, part only; not given: anti-CD3 scFv-Fc arm, constant regions, V domains shown, not shown: another chain or arm of the molecule; a dimerising Fc or GST; small tags and cut ends)
VH: B1 VH with K106R
VL: B1 VL
B13: XENP32565 (bispecific antibody, part only; not given: anti-CD3 scFv-Fc arm, constant regions, V domains shown, not shown: another chain or arm of the molecule; a dimerising Fc or GST; small tags and cut ends)
VH: B1 VH
VL: B1 VL with H55E
B14: XENP32568 (bispecific antibody, part only; not given: anti-CD3 scFv-Fc arm, constant regions, V domains shown, not shown: another chain or arm of the molecule; a dimerising Fc or GST; small tags and cut ends)
VH: B1 VH
VL: B1 VL with Y94T
B15: XENP32553 (bispecific antibody, part only; not given: anti-CD3 scFv-Fc arm, constant regions, V domains shown, not shown: another chain or arm of the molecule; a dimerising Fc or GST; small tags and cut ends)
VH: B1 VH with H52N
VL: B1 VL
B16: XENP32560 (bispecific antibody, part only; not given: anti-CD3 scFv-Fc arm, constant regions, V domains shown, not shown: another chain or arm of the molecule; a dimerising Fc or GST; small tags and cut ends)
VH: B1 VH
VL: B1 VL with H27Q
B17: XENP32569 (bispecific antibody, part only; not given: anti-CD3 scFv-Fc arm, constant regions, V domains shown, not shown: another chain or arm of the molecule; a dimerising Fc or GST; small tags and cut ends)
VH: B1 VH with N54Q
VL: B1 VL with D28S
B18: XENP32939 (bispecific antibody, part only; not given: anti-CD3 scFv-Fc arm, constant regions, V domains shown, not shown: another chain or arm of the molecule; a dimerising Fc or GST; small tags and cut ends)
VH: B1 VH with M50W
VL: B1 VL with T31Q
B19: XENP32938 (bispecific antibody, part only; not given: anti-CD3 scFv-Fc arm, constant regions, V domains shown, not shown: another chain or arm of the molecule; a dimerising Fc or GST; small tags and cut ends)
VH: B1 VH with E62Y
VL: B1 VL with S92Y
B20: XENP32940 (bispecific antibody, part only; not given: anti-CD3 scFv-Fc arm, constant regions, V domains shown, not shown: another chain or arm of the molecule; a dimerising Fc or GST; small tags and cut ends)
VH: B1 VH with M50W
VL: B1 VL with Y94F
B21: XENP32943 (bispecific antibody, part only; not given: anti-CD3 scFv-Fc arm, constant regions, V domains shown, not shown: another chain or arm of the molecule; a dimerising Fc or GST; small tags and cut ends)
VH: B1 VH with M50W
VL: B1 VL with Y94I

The first experiment concerns the target human mesothelin (MSLN) (human) (UniProt Q13421). Description: BLI (Octet), bsAb in 1+1 Fab-scFv-Fc format.
As usually defined, the Kd is the concentration at which binding is half-saturated. Lower therefore signals tighter binding. As usually defined, the koff is a measure of how fast the partners let go of each other. As usually defined, the kon is the second-order rate constant of association. B1 returned a Kd of 0.0805 nM, a Response of 0.86, a koff of 4.69e-05 s⁻¹ and a kon of 583000 M⁻¹ s⁻¹.
The matching figures for B2: 0.684 nM, 1.23, 0.000375 s⁻¹ and 549000 M⁻¹ s⁻¹.
The molecule B3 returned a Kd of 0.601 nM, a Response of 1.02, a koff of 0.000314 s⁻¹ and a kon of 522000 M⁻¹ s⁻¹.
For B4 the same measures were 0.283 nM, 1.11, 0.000161 s⁻¹ and 569000 M⁻¹ s⁻¹.
B5 yielded a Kd of 0.0861 nM, a Response of 0.952, a koff of 5.68e-05 s⁻¹ and a kon of 660000 M⁻¹ s⁻¹.
In turn, B6 came in with a Kd of 0.721 nM, a Response of 1.15, a koff of 0.000374 s⁻¹ and a kon of 519000 M⁻¹ s⁻¹.
The matching figures for B7: 0.469 nM, 1.18, 0.000199 s⁻¹ and 425000 M⁻¹ s⁻¹.
The matching figures for B8: 0.18 nM, 1.05, 0.000113 s⁻¹ and 627000 M⁻¹ s⁻¹.
The matching figures for B9: 0.103 nM, 0.981, 7.35e-05 s⁻¹ and 717000 M⁻¹ s⁻¹.
B10 had a Kd of 1.6 nM, a Response of 1.19, a koff of 0.000773 s⁻¹ and an on-rate (kon) of 483000 M⁻¹ s⁻¹.
The matching figures for B11: 0.483 nM, 1.13, 0.000268 s⁻¹ and 555000 M⁻¹ s⁻¹.
For B12 the same measures were 0.795 nM, 1.17, 0.000198 s⁻¹ and 249000 M⁻¹ s⁻¹.
Molecule B13 displayed a Kd of 0.286 nM, a Response of 1.11, a koff of 0.000169 s⁻¹ and a kon of 590000 M⁻¹ s⁻¹.
For B14, the Response stood at 0.107.
The molecule B15 registered a Kd of 0.687 nM, a Response of 1.16, a koff of 0.00037 s⁻¹ and a kon of 539000 M⁻¹ s⁻¹.
B16 displayed a Kd of 0.633 nM, a Response of 1.03, a koff of 0.000383 s⁻¹ and a kon of 605000 M⁻¹ s⁻¹.
As to B17, the Kd was 0.135 nM, the Response came to 0.978, the koff worked out at 9.35e-05 s⁻¹ and the kon was 693000 M⁻¹ s⁻¹.

In a further experiment the target is cyno MSLN (Macaca fascicularis). In words: BLI (Octet), bsAb in 1+1 Fab-scFv-Fc format. In general terms: In BLI a coated tip is dipped into the sample, and binding shifts an interference pattern.
The molecule B1 had a Kd of 0.0938 nM, a Response of 0.737, a koff of 5.74e-05 s⁻¹ and a kon of 612000 M⁻¹ s⁻¹.
B2 registered a Kd of 0.603 nM, a Response of 1.11, a koff of 0.000342 s⁻¹ and a kon of 566000 M⁻¹ s⁻¹.
For B3 the same measures were 0.254 nM, 0.891, 0.000146 s⁻¹ and 576000 M⁻¹ s⁻¹.
B4: the dissociation constant (Kd) was 0.223 nM, the Response is 1.04, the koff was determined as 0.000128 s⁻¹ and the kon is 575000 M⁻¹ s⁻¹.
The matching figures for B5: 0.0297 nM, 0.849, 2.01e-05 s⁻¹ and 676000 M⁻¹ s⁻¹.
For B6 the same measures were 0.62 nM, 1.09, 0.000321 s⁻¹ and 518000 M⁻¹ s⁻¹.
B7 displayed a Kd of 0.395 nM, a Response of 1.07, a koff of 0.000157 s⁻¹ and a kon of 399000 M⁻¹ s⁻¹.
The matching figures for B8: 0.163 nM, 0.941, 0.0001 s⁻¹ and 616000 M⁻¹ s⁻¹.
For B9 the same measures were 0.155 nM, 0.95, 0.000105 s⁻¹ and 676000 M⁻¹ s⁻¹.
For B10 the same measures were 1.66 nM, 1.1, 0.000822 s⁻¹ and 495000 M⁻¹ s⁻¹.
B11 displayed a Kd of 0.414 nM, a Response of 1.03, a koff of 0.00023 s⁻¹ and a kon of 555000 M⁻¹ s⁻¹.
The matching figures for B12: 0.7 nM, 1.11, 0.000166 s⁻¹ and 238000 M⁻¹ s⁻¹.
The matching figures for B13: 0.255 nM, 1, 0.000151 s⁻¹ and 592000 M⁻¹ s⁻¹.
Regarding B14, the Response came to 0.0728.
In the case of B15, the Kd is 0.585 nM, the Response came to 1.06, the koff is 0.000337 s⁻¹ and the kon stood at 575000 M⁻¹ s⁻¹.
For B16 the same measures were 1.2 nM, 0.948, 0.000762 s⁻¹ and 634000 M⁻¹ s⁻¹.
For B17 the same measures were 0.189 nM, 0.867, 0.000125 s⁻¹ and 660000 M⁻¹ s⁻¹.

The next experiment concerns the target human mesothelin (MSLN) (human) (UniProt Q13421). In words: BLI (Octet), multiple concentrations, bsAb in 1+1 Fab-scFv-Fc format.
B18 displayed a Kd of 90.4 nM, a Response of 0.202, a koff of 0.0383 s⁻¹ and a kon of 424000 M⁻¹ s⁻¹.
Molecule B19 came in with a Kd of 16.2 nM, a Response of 0.169, a koff of 0.0103 s⁻¹ and a kon of 635000 M⁻¹ s⁻¹.
The matching figures for B20: 246 nM, 0.136, 0.0816 s⁻¹ and 332000 M⁻¹ s⁻¹.
As to B21, the Response amounted to 0.0022.
